In patent publication US20190185581A1 (University of California, published 2019):

Columns and labels:
[1] = target: T1, catalytic domain of MMP-14 (cdMMP-14) (human, UniProt P50281 114-287, limits assumed, biotinylated (Sulfo-NHS-LC-Biotin) where immobilised via streptavidin); assay: cell-based or functional assay
[2] = target: T1, catalytic domain of MMP-14 (cdMMP-14); assay: SPR (Biacore), MMP-14 amine-coupled to the chip, Fab as analyte, 25 °C
[3] = target: T2, MMP-14 catalytic domain mutant F260A (human, UniProt P50281 114-287, limits assumed); assay: competitive ELISA: 10 nM Fab 3A2 incubated with the mutant, then captured on immobilised wild-type MMP-14
T2 construct: also called F260A MMP-14 mutant
Protocol: (§1) Bound Fabs were detected using the anti-Fab-HRP conjugate. The half-maximal effective concentration (EC₅₀) was calculated from a four-parametric logistic curve-fitting analysis.

[4] = target: T1, catalytic domain of MMP-14 (cdMMP-14); assay: surface plasmon resonance (Biacore), MMP-14 immobilised on the chip, Fab 3A2 injected at 20 nM; table beside the sensorgrams
[5] = target: T1, catalytic domain of MMP-14 (cdMMP-14); assay: surface plasmon resonance (Biacore), MMP-14 immobilised on the chip, Fab 3A2 injected at 15 nM; table beside the sensorgrams
[6] = target: T1, catalytic domain of MMP-14 (cdMMP-14); assay: ELISA, Fab titrated on immobilised biotin-cdMMP-14, anti-Fab-HRP
[7] = target: T1, catalytic domain of MMP-14 (cdMMP-14); assay: summary sentence on the Examples; method not given
[8] = target: T1, catalytic domain of MMP-14 (cdMMP-14); assay: cell-based or functional assay; remark: listed apart in the source
[9] = target: T3, catalytic domain of MMP-9 (cdMMP-9) (human, UniProt P14780 107-443, limits assumed); assay: ELISA, purified Fab at 50, 100, 250 and 500 nM on immobilised MMP catalytic domain, anti-Fab-HRP, OD450
T3 sequence: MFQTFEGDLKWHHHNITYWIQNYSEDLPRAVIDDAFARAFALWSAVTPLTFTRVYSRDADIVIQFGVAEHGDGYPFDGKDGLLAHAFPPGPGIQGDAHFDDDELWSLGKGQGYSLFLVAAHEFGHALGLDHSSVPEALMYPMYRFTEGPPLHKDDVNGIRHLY

[10] = target: catalytic domain of MMP-2 (human, UniProt P08253 115-449, limits assumed, biotinylated (Sulfo-NHS-LC-Biotin)); assay: as above
[11] = target: T1, catalytic domain of MMP-14 (cdMMP-14); assay: surface plasmon resonance (Biacore), MMP-14 immobilised on the chip, Fab 3A2 injected at 10 nM; table beside the sensorgrams
[12] = target: MMP-14 catalytic domain mutant T190A (human, UniProt P50281 114-287, limits assumed); assay: cell-based or functional assay
[13] = target: MMP-14 catalytic domain mutant Y203A (human, UniProt P50281 114-287, limits assumed); assay: cell-based or functional assay
[14] = target: T2, MMP-14 catalytic domain mutant F260A; assay: cell-based or functional assay
[15] = target: MMP-14 catalytic domain mutant N231A (human, UniProt P50281 114-287, limits assumed); assay: cell-based or functional assay
[16] = target: MMP-14 catalytic domain mutant F204A (human, UniProt P50281 114-287, limits assumed); assay: cell-based or functional assay
[17] = target: MMP-14 catalytic domain mutant F198A (human, UniProt P50281 114-287, limits assumed); assay: cell-based or functional assay
[18] = target: T1, catalytic domain of MMP-14 (cdMMP-14); assay: summary sentence on the Examples; enzyme inhibition
[19] = target: T1, catalytic domain of MMP-14 (cdMMP-14); assay: SPR (Biacore), KD from koff/kon
[20] = target: T1, catalytic domain of MMP-14 (cdMMP-14); assay: ELISA, Fab titrated on immobilised MMP-14 catalytic domain, anti-Fab-HRP
Protocol: as §1

catalytic domain of MMP-2, sequence (P08253 other isoform, or with tags, fused parts or gaps limits assumed): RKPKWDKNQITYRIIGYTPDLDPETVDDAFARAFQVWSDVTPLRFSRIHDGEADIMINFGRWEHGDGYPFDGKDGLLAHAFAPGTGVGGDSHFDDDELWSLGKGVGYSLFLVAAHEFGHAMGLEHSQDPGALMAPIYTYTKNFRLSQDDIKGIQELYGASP

B1: Fab 3A2 (Fab, V domains shown)
VH: EVQLVESGGGLVQPGGSLRLSCAASGFNLSSSSMHWVRQAPGKGLEWVASIYPSYSYTYYADSVKGRFTISADTSKNTAYLQMNSLRAEDTAVYYCARVKLQKDKSHQWIRNLVATPYGRYVMDYWGQGTLVTVSS
VL: DIQMTQSPSSLSASVGDRVTITCRASQSVSSAVAWYQQKPGKAPKLLIYSASSLYSGVPSRFSGSRSGTDFTLTISSLQPEDFATYYCQQYGYPITFGQGTKVEIKR
notes: also called R3C9; not shown: His tag at the C-terminus of the heavy chain
Inhibition potency (FRET IC50) [1]: 9.7 nM | koff [2]: 0.00179 s⁻¹ | kon [2]: 368000 M⁻¹ s⁻¹ | binding result [3]: no binding (tested: 0-2,000 nM mutant) | Kd [4]: 9.17 nM | koff [4]: 0.00347 s⁻¹ | kon [4]: 378000 M⁻¹ s⁻¹ | Kd [5]: 3.64 nM | koff [5]: 0.00125 s⁻¹ | kon [5]: 344000 M⁻¹ s⁻¹ | EC50 [6]: 3.8 nM | Kd [7]: 4.85 nM | IC50 by FRET Assay [8]: 9.7 nM | binding result [9]: no binding (tested: 500 nM) | binding result [10]: no binding (tested: 500 nM) | Kd [11]: 1.74 nM | koff [11]: 0.000667 s⁻¹ | kon [11]: 383000 M⁻¹ s⁻¹ | inhibition (%) of peptide cleavage: 50 nM MMP-14 mutant, 5 uM Fab 3A2, 1 uM quenched fluorescent substrate [12]: 95% | inhibition (%) of peptide cleavage: 50 nM MMP-14 mutant, 5 uM Fab 3A2, 1 uM quenched fluorescent substrate [13]: 98% | inhibition (%) of peptide cleavage: 50 nM MMP-14 mutant, 5 uM Fab 3A2, 1 uM quenched fluorescent substrate [14]: 0% | inhibition (%) of peptide cleavage: 50 nM MMP-14 mutant, 5 uM Fab 3A2, 1 uM quenched fluorescent substrate [15]: 90% | inhibition (%) of peptide cleavage: 50 nM MMP-14 mutant, 5 uM Fab 3A2, 1 uM quenched fluorescent substrate [16]: 96% | inhibition (%) of peptide cleavage: 50 nM MMP-14 mutant, 5 uM Fab 3A2, 1 uM quenched fluorescent substrate [17]: 98% | Ki [18]: 10 nM | Kd [19]: 4.76 nM | EC50 [20]: 3.8 nM
